This note sets out measurements from US20210230294A1 (Incyte, published 2021).

As a reminder, the Kd is a measure of binding affinity in units of concentration. As a reminder, the koff is a measure of how fast the partners let go of each other. For orientation: kon means a measure of how fast the partners come together. Usually EC50 (read off the curve) stands for the concentration needed to bring the measured effect to its halfway point.

Assay [1] deals with T1, recombinant human CD73 (SEQ ID NO:70) (human, UniProt P21589 27-549).
T1 construct: Soluble recombinant protein in normal SPR running buffer (open conformation), the soluble enzyme assay and HDX-MS; SPR stock bought from BPS Bioscience; also called rhuCD73; CD73 in the open conformation
T1 sequence: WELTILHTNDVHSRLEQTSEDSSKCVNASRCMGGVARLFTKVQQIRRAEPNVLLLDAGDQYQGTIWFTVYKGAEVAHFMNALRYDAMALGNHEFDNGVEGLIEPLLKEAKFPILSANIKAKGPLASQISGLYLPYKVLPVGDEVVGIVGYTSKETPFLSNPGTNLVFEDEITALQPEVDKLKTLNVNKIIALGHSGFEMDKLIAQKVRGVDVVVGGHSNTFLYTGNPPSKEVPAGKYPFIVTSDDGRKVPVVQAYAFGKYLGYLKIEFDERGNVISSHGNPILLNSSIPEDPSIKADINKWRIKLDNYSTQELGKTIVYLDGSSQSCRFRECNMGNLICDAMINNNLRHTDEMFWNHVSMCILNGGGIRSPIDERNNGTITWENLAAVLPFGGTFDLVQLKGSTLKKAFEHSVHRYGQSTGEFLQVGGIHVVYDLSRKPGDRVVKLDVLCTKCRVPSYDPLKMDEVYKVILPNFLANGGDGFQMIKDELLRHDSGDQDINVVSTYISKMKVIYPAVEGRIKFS
Nature of the assay: SPR (Biacore 8K), antibody captured on anti-human Fc, CD73 as analyte, open conformation. As for the experimental part:
(§1) The SPR running buffer (10 mM HEPES, 150 mM NaCl, 3 mM EDTA and 0.05% v/v Surfactant P20, pH 7.4) was prepared from 10×HBS-EP Buffer (GE Healthcare). Anti-human Fc antibodies (GE Healthcare) were immobilized via amine coupling on all sixteen flow cells of an S series sensor chip CM5 (GE Healthcare). The immobilization levels were ˜9000 RU for all flow cells. […] The non-cleavable ADP analogue APCP (adenosine-5′-(α,β-methylene) diphosphate) with the presence of Zn²⁺ can be used to shift the CD73 conformational equilibrium from open towards closed. Therefore, recombinant CD73 was incubated with SPR running buffer in the presence of 100 μM APCP and 10 μM ZnCl₂ (closed SPR running buffer) to study the binding of anti-CD73 antibody to the CD73 in the closed conformation. To achieve this, the ABA injection feature in Biacore 8K was used. For open conformation, the ABA injection sequence started with 60 seconds injection of running buffer. Then, CD73 3-fold serial dilution concentration series prepared from CD73 stock (BPS Bioscience) and running buffer were injected for 180 seconds immediately followed by running buffer for 240 seconds. For closed conformation, the normal SPR running buffer was replaced by closed SPR running buffer. Surface was regenerated with 30 seconds injection of 3 M MgCl₂.

In assay [2] the target is T2, mouse CD73 (SEQ ID NO:71) (mouse, UniProt Q61503 29-551).
T2 construct: Open conformation (normal SPR running buffer); also called Murine; murine CD73
T2 sequence: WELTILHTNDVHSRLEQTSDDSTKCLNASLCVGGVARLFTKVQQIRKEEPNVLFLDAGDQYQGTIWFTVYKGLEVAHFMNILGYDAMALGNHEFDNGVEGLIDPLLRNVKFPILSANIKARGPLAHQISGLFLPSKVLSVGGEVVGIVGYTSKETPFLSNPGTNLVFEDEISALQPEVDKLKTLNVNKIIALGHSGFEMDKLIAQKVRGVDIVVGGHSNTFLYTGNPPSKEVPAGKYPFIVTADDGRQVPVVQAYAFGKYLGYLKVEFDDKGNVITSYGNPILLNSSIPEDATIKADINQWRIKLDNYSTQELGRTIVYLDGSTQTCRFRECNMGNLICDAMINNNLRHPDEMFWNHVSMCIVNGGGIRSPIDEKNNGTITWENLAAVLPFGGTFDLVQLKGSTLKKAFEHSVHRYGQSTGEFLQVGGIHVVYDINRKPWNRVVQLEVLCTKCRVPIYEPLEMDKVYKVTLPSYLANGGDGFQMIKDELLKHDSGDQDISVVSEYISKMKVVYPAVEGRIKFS
The assay is described as above. As for the experimental part:
as §1

For assay [3], the target named is T3, cynomolgus CD73 (SEQ ID NO:72) (cynomolgus, UniProt P21589 27-549 (human entry)).
T3 construct: Open conformation (normal SPR running buffer)
T3 chain: T1 sequence with M199T, T350A, V466I
The description is as above. As for the experimental part: as §1

Assay [4] concerns the target T4, recombinant human CD73 in the closed conformation (human, UniProt P21589 27-549).
T4 construct: Kept apart from m1 because results differ between the two states; also called human CD73, Closed
T4 sequence: T1 sequence
Nature of the assay: SPR (Biacore 8K), antibody captured on anti-human Fc, CD73 as analyte, buffer with APCP and ZnCl2 (closed conformation). As for the experimental part:
as §1
In general terms: In SPR one partner is held on a chip, and binding of the other changes the refractive index at the surface.

The target of assay [5] is T5, mouse CD73 in the closed conformation (mouse, UniProt Q61503 29-551).
T5 construct: Same protein as m3 in buffer with 100 uM APCP and 10 uM ZnCl2 (closed conformation); also called Murine, Closed
T5 sequence: T2 sequence
The description is as above. As for the experimental part:
as §1

Assay [6] deals with T6, cynomolgus CD73 in the closed conformation (cynomolgus, UniProt P21589 27-549 (human entry)).
T6 construct: Same protein as m2 in buffer with 100 uM APCP and 10 uM ZnCl2 (closed conformation); also called Cynomolgus, Closed
T6 chain: T1 sequence with M199T, T350A, V466I
The description is as above. As for the experimental part: as §1

Assay [7] deals with T7, human CD73 on the cell surface (MDA-MB-231 and A375 cells) (human, UniProt P21589 27-549).
T7 construct: also called cell surface CD73; cellular CD73
T7 sequence: T1 sequence
Nature of the assay: flow cytometry on MDA-MB-231 cells, PE-conjugated secondary antibody, GMFI.

Assay [8] has as its target T7, human CD73 on the cell surface …. Nature of the assay: flow cytometry on A375 cells, PE-conjugated secondary antibody, GMFI. In general terms: In flow cytometry, cells or beads pass a laser one at a time.
For assay [9] the target is unchanged. Kind of assay: flow cytometry on MDA-MB-231 cells, PE-conjugated secondary antibody, GMFI. As for the experimental part:
Cells were stained with the indicated concentration of antibodies for 1 hour on ice. Cells were then washed and stained goat anti-mouse secondary conjugated to PE for 30 minute on ice. Cells were then washed and analyzed by flow cytometry. The GMFI of CD73 staining is graphed (FIG. 13).
This is another data set of the same source.

Assay [10] has the same target. The assay is described as above. As for the experimental part: The cells were stained with the indicated concentration of antibodies for 30 minutes on ice (FIG. 2A and FIG. 2B). Next, the cells were washed and stained using goat anti-mouse secondary conjugated to phycoerythrin (PE) for 30 minutes on ice. The cells were then washed and analyzed by flow cytometry. Geometric mean fluorescence intensity (GMFI) of CD73 staining was graphed (FIG. 2A and FIG. 2B).
This is another data set of the same source.

Positions count from the first letter of the chain named. Names may count otherwise.

B1: HzCL25 (antibody, human IgG1, kappa, N297A, V domains shown)
VH: EVQLVQSGAEVKKPGESLKISCKGSGYTFTSYGLSWVRQMPGKGLEWMGEIYPGSGNTYYNEKFKGQVTISADKSISTAYLQWSSLKASDTAMYYCARYDYLGSSYGFDYWGAGTTVTVSS
VL: DIVMTQSPDSLAVSLGERATINCKASQDVSTAVAWYQQKPGQPPKLLIYSASYRYSGVPDRFSGSGSGTDFTLTISSLQAEDVAVYYCQQHYNTPYTFGGGTKLEIKR
notes: Humanized IgG1/kappa with N297A; also called humanized CL25
Regarding B1, in assay [1], the Kd is less than 449 pM, the koff came to 0.000449 s⁻¹ and the kon is greater than 1e+06 M⁻¹ s⁻¹. Also, in assay [2], the binding result was “no binding”. Also, in [3], the Kd is less than 468 pM, the koff came out at 0.000468 s⁻¹ and the kon is greater than 1e+06 M⁻¹ s⁻¹.

B2: CL25 (chimeric antibody, murine VH/VL with human IgG1/kappa constant regions) (antibody, V domains shown)
VH: QVQLQQSGAELARPGASVKLSCRASGYTFTSYGLSWVKQRTGQGLEWIGEIYPGSGNTYYNEKFKGKATLTADKSSSTAYMELRSLTSEDSAVYFCARYDYLGSSYGFDYWGQGTTLTVSS
VL: DIVMTQSHKFMSTSVGDRVSITCKASQDVSTAVAWYQQKPGQSPKLLIYSASYRYNGVPDRFTGSGSGTDFTFTISSVQAEDLAVYYCQQHYNTPYTFGGGTKLEIKR
notes: also called Chimeric antibody CL25
Consider B2, for which the Kd in assay [1] was less than 394 pM; in assay [3], less than 658 pM; in assay [4], 381 pM; in assay [6], 529 pM. Moreover, the koff in [1] was 0.000394 s⁻¹; in assay [3], 0.000658 s⁻¹; in [4], 0.000344 s⁻¹; in [6], 0.000495 s⁻¹. Besides, the kon in [1] was greater than 1e+06 M⁻¹ s⁻¹; in [3], greater than 1e+06 M⁻¹ s⁻¹; in [4] it was 903000 M⁻¹ s⁻¹; in [6] it was 936000 M⁻¹ s⁻¹. The binding result in assay [2] and in assay [5] was “no binding” each time.

B3: 3-F03 (full-length human antibody) (antibody, human IgG1, kappa, N297A)
heavy: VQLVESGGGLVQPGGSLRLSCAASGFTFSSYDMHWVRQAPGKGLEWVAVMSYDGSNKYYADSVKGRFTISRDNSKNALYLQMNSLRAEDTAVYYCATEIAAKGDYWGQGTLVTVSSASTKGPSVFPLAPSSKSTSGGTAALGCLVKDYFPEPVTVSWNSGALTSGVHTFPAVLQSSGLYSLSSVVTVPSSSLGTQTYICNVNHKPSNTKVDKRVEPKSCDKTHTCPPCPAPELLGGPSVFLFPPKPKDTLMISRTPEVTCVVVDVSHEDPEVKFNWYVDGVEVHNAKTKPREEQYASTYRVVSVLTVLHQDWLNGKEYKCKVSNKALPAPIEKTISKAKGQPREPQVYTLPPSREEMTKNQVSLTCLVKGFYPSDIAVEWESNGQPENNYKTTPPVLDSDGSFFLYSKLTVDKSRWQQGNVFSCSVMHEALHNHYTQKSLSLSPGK
light: IQMTQSPSSLSASVGDRVTITCRASQGISNYLAWYQQKPGKAPKLLIYAASTLQSGVPSRFSGSGSGTDFTLTISSLQPEDFATYYCQQSYSTPHFGQGTRLEIKRTVAAPSVFIFPPSDEQLKSGTASVVCLLNNFYPREAKVQWKVDNALQSGNSQESVTEQDSKDSTYSLSSTLTLSKADYEKHKVYACEVTHQGLSSPVTKSFNRGEC
notes: Human IgG1/kappa with N297A; also called Antibody 3-F03; Clone 3-F03
On to B3, for which the Kd in assay [1] amounted to 370 pM; in assay [2] it was 1660 pM; in assay [3], 734 pM. The “EC50 (read off the curve)” value in [7] was roughly 3 µg/mL; in [8] it was roughly 0.1 µg/mL.

B4: 3-F03_411 (antibody, human IgG1, kappa, N297A)
heavy: not shown
light: B3 light
With B4, the “EC50 (read off the curve)” value in assay [9] is roughly 1 µg/mL.

B5: CL25_hu_11-4 (antibody, V domains shown)
VH: QVQLVQSGAEVKKPGASVKVSCKASGYTFTSYGLSWVRQATGQGLEWMGEIYPGSGNTYYNEKFKGRVTMTANTSISTAYMELSSLRSEDTAVYYCARYDYLGSSYGFDYWGAGTTVTVSS
VL: DIQMTQSPSSLSASVGDRVTITCKASQDVSTAVAWYQQKPGKAPKLLLYSASYRYSGVPSRFSGSGSGTDYTLTISSLQPEDFATYYCQQHYNTPYTFGGGTKLEIK
notes: Humanized CL25 antibody
As for B5, in assay [1], the Kd was found to be 2480 pM, the koff came to 0.00155 s⁻¹ and the kon was 624000 M⁻¹ s⁻¹. For the same molecule, the “EC50 (read off the curve)” value in assay [10] was roughly 0.1 µg/mL.
